According to the supplement of paper PMC9942255:
Values joined by “and” are separate entries in the source; they are usually repeats but may differ in a detail not shown here. Equal values may be shown once.

Tested on: Bacillus subtilis DB104 (SP-AmyQ fusion secretion)
Experiment: AmyQ secretion efficiency, weighted average sort bin (1 = best secretion, 10 = worst) (bin number (weighted average, 1-10)); higher = lower secretion efficiency
In short: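 The secretion score gives the average bin number weighted by read frequency and normalised to beads per bin, with low-abundance sequences excluded. Bins were 10 equally populated green/red fluorescence ratio fractions of occupied ~65 nL alginate beads, sorted by large-particle flow cytometry. The beads held fluorescein-starch and about 0.3 cells each of an amyE-integrated B. subtilis DB104 library fusing designed signal peptides to mature AmyQ, and they were grown about 13 h at room temperature and stained with nile red before sorting and Illumina sequencing.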

Sequence: MRNLTKTSLLLAGLCTAAEEEEEDHASAEES
- AmyQ secretion efficiency: 6.56

Sequence: MRNLTKTSLLLAGLCTAAIMVFVIHASAEES
- AmyQ secretion efficiency: 5.76

Sequence: MRNLTKTSLLLAGLCTAAIQMVFVTHASAEES
- AmyQ secretion efficiency: 3.32 and 3.1

Sequence: MRNLTKTSLLLAGLCTAAKKKFVTHASAEES
- AmyQ secretion efficiency: 8.31

Sequence: MRNLTKTSLLLAGLCTAAQMVFVTHASAADE
- AmyQ secretion efficiency: 2.81

Sequence: MRNLTKTSLLLAGLCTAAQMVFVTHASAAKR
- AmyQ secretion efficiency: 2.59

Sequence: MRNLTKTSLLLAGLCTAAQMVFVTHASAAPS
- AmyQ secretion efficiency: 1.69

Sequence: MRNLTKTSLLLAGLCTAAQMVFVTHASAASK
- AmyQ secretion efficiency: 1.6

Sequence: MRNLTKTSLLLAGLCTAAQMVFVTHASAATD
- AmyQ secretion efficiency: 2.35

Sequence: MRNLTKTSLLLAGLCTAAQMVFVTHASADDE
- AmyQ secretion efficiency: 5.02

Sequence: MRNLTKTSLLLAGLCTAAQMVFVTHASAKKK
- AmyQ secretion efficiency: 3.84

Sequence: MRNLTKTSLLLAGLCTAAQMVFVTHASCEES
- AmyQ secretion efficiency: 4.5

Sequence: MRNLTKTSLLLAGLCTAAQMVFVTHASGEES
- AmyQ secretion efficiency: 2.76

Sequence: MRNLTKTSLLLAGLCTAAQMVFVTHASLEES
- AmyQ secretion efficiency: 3.72

Sequence: MRNLTKTSLLLAGLCTAAQMVFVTHASSEES
- AmyQ secretion efficiency: 4.13

Sequence: MRNLTKTSLLLAGLCTAAQMVFVTHCSAEES
- AmyQ secretion efficiency: 2.79

Sequence: MRNLTKTSLLLAGLCTAAQMVFVTHGSAEES
- AmyQ secretion efficiency: 4.68

Sequence: MRNLTKTSLLLAGLCTAAQMVFVTHHSAEES
- AmyQ secretion efficiency: 4.26

Sequence: MRNLTKTSLLLAGLCTAAQMVFVTHISAEES
- AmyQ secretion efficiency: 3.9

Sequence: MRNLTKTSLLLAGLCTAAQMVFVTHLSAEES
- AmyQ secretion efficiency: 3.52

Sequence: MRNLTKTSLLLAGLCTAAQMVFVTHMSAEES
- AmyQ secretion efficiency: 3.28

Sequence: MRNLTKTSLLLAGLCTAAQMVFVTHSSAEES
- AmyQ secretion efficiency: 4.02

Sequence: MRNLTKTSLLLAGLCTAAQMVFVTHSTASAEES
- AmyQ secretion efficiency: 3.1

Sequence: MRNLTKTSLLLAGLCTAAQMVFVTHTFTFVGASAEES
- AmyQ secretion efficiency: 7.25

Sequence: MRNLTKTSLLLAGLCTAAQMVFVTHTSAEES
- AmyQ secretion efficiency: 3.23

Sequence: MRNLTKTSLLLAGLCTAAQMVFVTHVSAEES
- AmyQ secretion efficiency: 3.09

Sequence: MRNLTKTSLLLAGLCTAAQMVFVTHWSAEES
- AmyQ secretion efficiency: 8.27

Sequence: MRNLTKTSLLLAGLCTAAQSEFVTHASAEES
- AmyQ secretion efficiency: 4.61

Sequence: MRNLTKTSLLLAGLCTAARRKKKKHASAEES
- AmyQ secretion efficiency: 7.09

Sequence: MRNLTKYTTSKGGLCTAAQMVFVTHASAEES
- AmyQ secretion efficiency: 7.66

Sequence: MRNLTKYYTTLAGLCTAAQMVFVTHASAEES
- AmyQ secretion efficiency: 3.01

Sequence: MRNRRKTSLLLAGLCTAAQMVFVTHASAEES
- AmyQ secretion efficiency: 3.33

Sequence: MRPKRPRKLILSAVLFLSCFFGARQTEASASKR
- AmyQ secretion efficiency: 4.56

Sequence: MRPLILSAVLFLSCFFGARQTEASASKR
- AmyQ secretion efficiency: 3.63

Sequence: MRPQFPLILSAVLFLSCFFGARQTEASASKR
- AmyQ secretion efficiency: 4.77

Sequence: MRPVFPGKGQYVLFLSCFFGARQTEASASKR
- AmyQ secretion efficiency: 6.9

Sequence: MRPVFPIMNNILLILSAVLFLSCFFGARQTEASASKR
- AmyQ secretion efficiency: 1.84

Sequence: MRPVFPLILIAVLFLFCFSFGARQTEASASKR
- AmyQ secretion efficiency: 2.07

Sequence: MRPVFPLILSAVLFLFGARQTEASASKR
- AmyQ secretion efficiency: 5.49

Sequence: MRPVFPLILSAVLFLSCFDDDDDTEASASKR
- AmyQ secretion efficiency: 4.17

Sequence: MRPVFPLILSAVLFLSCFEGAEQTEASASKR
- AmyQ secretion efficiency: 3.25

Sequence: MRPVFPLILSAVLFLSCFFAATVFFASASKR
- AmyQ secretion efficiency: 7

Sequence: MRPVFPLILSAVLFLSCFFFGARQTEASASKR
- AmyQ secretion efficiency: 1.8

Sequence: MRPVFPLILSAVLFLSCFFGAREASASKR
- AmyQ secretion efficiency: 1.24

Sequence: MRPVFPLILSAVLFLSCFFGARQTEASAEEE
- AmyQ secretion efficiency: 2.93

Sequence: MRPVFPLILSAVLFLSCFFGARQTEASARKR
- AmyQ secretion efficiency: 2.01

Sequence: MRPVFPLILSAVLFLSCFFGARQTEASASED
- AmyQ secretion efficiency: 3.13

Sequence: MRPVFPLILSAVLFLSCFFGARQTEASASPF
- AmyQ secretion efficiency: 2.82

Sequence: MRPVFPLILSAVLFLSCFFGARQTEASASSD
- AmyQ secretion efficiency: 1.96

Sequence: MRPVFPLILSAVLFLSCFFGARQTEASCSKR
- AmyQ secretion efficiency: 3.44

Sequence: MRPVFPLILSAVLFLSCFFGARQTEASDSKR
- AmyQ secretion efficiency: 2.12

Sequence: MRPVFPLILSAVLFLSCFFGARQTEASESKR
- AmyQ secretion efficiency: 2.54

Sequence: MRPVFPLILSAVLFLSCFFGARQTEASFSKR
- AmyQ secretion efficiency: 2.95

Sequence: MRPVFPLILSAVLFLSCFFGARQTEASGSKR
- AmyQ secretion efficiency: 1.87

Sequence: MRPVFPLILSAVLFLSCFFGARQTEASHSKR
- AmyQ secretion efficiency: 2.35

Sequence: MRPVFPLILSAVLFLSCFFGARQTEASISKR
- AmyQ secretion efficiency: 3

Sequence: MRPVFPLILSAVLFLSCFFGARQTEASKSKR
- AmyQ secretion efficiency: 2.19

Sequence: MRPVFPLILSAVLFLSCFFGARQTEASLSKR
- AmyQ secretion efficiency: 3.68

Sequence: MRPVFPLILSAVLFLSCFFGARQTEASMSKR
- AmyQ secretion efficiency: 2.44

Sequence: MRPVFPLILSAVLFLSCFFGARQTEASNSKR
- AmyQ secretion efficiency: 2.41

Sequence: MRPVFPLILSAVLFLSCFFGARQTEASPSKR
- AmyQ secretion efficiency: 2.1

Sequence: MRPVFPLILSAVLFLSCFFGARQTEASRSKR
- AmyQ secretion efficiency: 2.45

Sequence: MRPVFPLILSAVLFLSCFFGARQTEASSSKR
- AmyQ secretion efficiency: 3.03

Sequence: MRPVFPLILSAVLFLSCFFGARQTEASTSKR
- AmyQ secretion efficiency: 2.25

Sequence: MRPVFPLILSAVLFLSCFFGARQTEASVSKR
- AmyQ secretion efficiency: 2.77

Sequence: MRPVFPLILSAVLFLSCFFGARQTEASWSKR
- AmyQ secretion efficiency: 4.13

Sequence: MRPVFPLILSAVLFLSCFFGARQTEASYSKR
- AmyQ secretion efficiency: 2.56

Sequence: MRPVFPLILSAVLFLSCFFGARQTEESASKR
- AmyQ secretion efficiency: 7.33

Sequence: MRPVFPLILSAVLFLSCFFGARQTEFSASKR
- AmyQ secretion efficiency: 7.3

Sequence: MRPVFPLILSAVLFLSCFFGARQTEGSASKR
- AmyQ secretion efficiency: 4.92

Sequence: MRPVFPLILSAVLFLSCFFGARQTEHSASKR
- AmyQ secretion efficiency: 6.3

Sequence: MRPVFPLILSAVLFLSCFFGARQTEISASKR
- AmyQ secretion efficiency: 2.64

Sequence: MRPVFPLILSAVLFLSCFFGARQTEKSASKR
- AmyQ secretion efficiency: 6.8

Sequence: MRPVFPLILSAVLFLSCFFGARQTELSASKR
- AmyQ secretion efficiency: 3.47

Sequence: MRPVFPLILSAVLFLSCFFGARQTEMSASKR
- AmyQ secretion efficiency: 3.55

Sequence: MRPVFPLILSAVLFLSCFFGARQTENSASKR
- AmyQ secretion efficiency: 6.14

Sequence: MRPVFPLILSAVLFLSCFFGARQTEPSASKR
- AmyQ secretion efficiency: 5.61

Sequence: MRPVFPLILSAVLFLSCFFGARQTERSASKR
- AmyQ secretion efficiency: 6.76

Sequence: MRPVFPLILSAVLFLSCFFGARQTESFASASKR
- AmyQ secretion efficiency: 4.97

Sequence: MRPVFPLILSAVLFLSCFFGARQTESSASKR
- AmyQ secretion efficiency: 3.91

Sequence: MRPVFPLILSAVLFLSCFFGARQTETSASKR
- AmyQ secretion efficiency: 5.36

Sequence: MRPVFPLILSAVLFLSCFFGARQTEVSASKR
- AmyQ secretion efficiency: 2.58

Sequence: MRPVFPLILSAVLFLSCFFGARQTEWSASKR
- AmyQ secretion efficiency: 7.27

Sequence: MRPVFPLILSAVLFLSCFFGARQTEYSASKR
- AmyQ secretion efficiency: 8.3

Sequence: MRPVFPLILSAVLFLSCFFGATQTEASASKR
- AmyQ secretion efficiency: 2.13

Sequence: MRPVFPLILSAVLFLSCFFIAGATEASASKR
- AmyQ secretion efficiency: 3.68

Sequence: MRPVFPLILSAVLFLSCFKKKRRTRASASKR
- AmyQ secretion efficiency: 6.66

Sequence: MRPVFPLILSAVLFLSCFRASASKR
- AmyQ secretion efficiency: 6.81

Sequence: MRPVFPLILSAVLFLSCFRGARQTKASASKR
- AmyQ secretion efficiency: 7.54

Sequence: MRPVFPLILSAVLFLSCFSTSVAITVTFGARQTEASASKR
- AmyQ secretion efficiency: 3.9

Sequence: MRPVFPLILSAVLFLSCFSVSTFFGARQTEASASKR
- AmyQ secretion efficiency: 2.65

Sequence: MRPVFPLILSAVLFLSCFTGARQTEASASKR
- AmyQ secretion efficiency: 3.07

Sequence: MRPVFPLKKRRVLFLSCFFGARQTEASASKR
- AmyQ secretion efficiency: 7.34

Sequence: MRPVFPLKRSAVLFLSCFFGARQTEASASKR
- AmyQ secretion efficiency: 8.12

Sequence: MRPVFPLRRRRRRFLSCFFGARQTEASASKR
- AmyQ secretion efficiency: 7.47

Sequence: MRPVFPTSQKKYLFLSCFFGARQTEASASKR
- AmyQ secretion efficiency: 7.29

Sequence: MRPVFPYTLSAVLFLSCFFGARQTEASASKR
- AmyQ secretion efficiency: 2.08

Sequence: MRQRKKAVFVIMISFLIATVNVNTAHAAID
- AmyQ secretion efficiency: 6.22

Sequence: MRRGKKLSVAVAASFMSLSISLPGVQAAEG
- AmyQ secretion efficiency: 1.3

Sequence: MRRKKKKVVSALSISALALSVSGVASAHEI
- AmyQ secretion efficiency: 3.9

Sequence: MRRKKKRVLTMCFLGLILFVPTALADNS
- AmyQ secretion efficiency: 3.09

Sequence: MRRKKRKAVLLSLIMLIAGFLISFSFQM
- AmyQ secretion efficiency: 7.79

Sequence: MRRKKRKVVGFLSVLGLAAVFPLTAQAEKA
- AmyQ secretion efficiency: 2.12

Sequence: MRRKRFTALAVFLLCFMPAAKIEHTQASLL
- AmyQ secretion efficiency: 5.25

Sequence: MRRKRKRTSLLLAGLCTAAQMVFVTHASAEES
- AmyQ secretion efficiency: 2.89

Sequence: MRRRTDYKKQVVGILLSLAFVLFVFSFSERHE
- AmyQ secretion efficiency: 6.74

Sequence: MRRRWRSLALCGLALTLAPCAQAAEP
- AmyQ secretion efficiency: 2.05

Sequence: MRRSLALCGLALTLAPCAQAAEP
- AmyQ secretion efficiency: 2.27

Sequence: MRRVCFLAALIMAFTLPNSVYAQKP
- AmyQ secretion efficiency: 2.21

Sequence: MRRYRKVLTMCFLGLILFVPTALADNS
- AmyQ secretion efficiency: 1.79

Sequence: MRSKKILWISLLFALTLIFTMAFSNMSAQAAGK
- AmyQ secretion efficiency: 2.64

Sequence: MRSKKLLFTLWISLLFALTLIFTMAFSNMSAQAAGK
- AmyQ secretion efficiency: 2.87

Sequence: MRSKKLWISLLFALFTMAFSNMSAQAAGK
- AmyQ secretion efficiency: 2.16

Sequence: MRSKKLWISLLFALTLIFAMAFIAMIAQAAGK
- AmyQ secretion efficiency: 2

Sequence: MRSKKLWISLLFALTLIFTMAFSNMSAQAAGQ
- AmyQ secretion efficiency: 2.13

Sequence: MRSKKLWISLLFALTLIFTMAFSNMSAQHAGK
- AmyQ secretion efficiency: 6.69

Sequence: MRSKKLWISLLFALTLIFTMAFSNMSAQPAGK
- AmyQ secretion efficiency: 3.56

Sequence: MRSKKLWISLLFALTLIFTMAFSNMSAQRAGK
- AmyQ secretion efficiency: 6.17

Sequence: MRSKKLWISLLFALTLIFTMAFSNMSAQWAGK
- AmyQ secretion efficiency: 6.53

Sequence: MRSKKLWISLLFALTLIFTMAFSNMSCQAAGK
- AmyQ secretion efficiency: 2.77

Sequence: MRSKKLWISLLFALTLIFTMAFSNMSDQAAGK
- AmyQ secretion efficiency: 2.84

Sequence: MRSKKLWISLLFALTLIFTMAFSNMSPQAAGK
- AmyQ secretion efficiency: 4.28

Sequence: MRSKKLWISLLFALTLIFTMAFSNMSVVTGAQAAGK
- AmyQ secretion efficiency: 2.11

Sequence: MRSKKLWISLLFALTLIFVMAFGNMTAQAAGK
- AmyQ secretion efficiency: 1.9
